How the values were obtained:
[1] = molecular target: N-terminal FLAG-tagged EBP50 (ERM-binding phosphoprotein 50) (human) (UniProt O14745); assay: RNA immunoprecipitation
[2] = molecular target: ezrin, endogenous in HEK293T cells (human (endogenous in HEK293T), UniProt P15311 1-586); assay: RNA immunoprecipitation
ezrin, endogenous in HEK293T cells, sequence (P15311 whole entry): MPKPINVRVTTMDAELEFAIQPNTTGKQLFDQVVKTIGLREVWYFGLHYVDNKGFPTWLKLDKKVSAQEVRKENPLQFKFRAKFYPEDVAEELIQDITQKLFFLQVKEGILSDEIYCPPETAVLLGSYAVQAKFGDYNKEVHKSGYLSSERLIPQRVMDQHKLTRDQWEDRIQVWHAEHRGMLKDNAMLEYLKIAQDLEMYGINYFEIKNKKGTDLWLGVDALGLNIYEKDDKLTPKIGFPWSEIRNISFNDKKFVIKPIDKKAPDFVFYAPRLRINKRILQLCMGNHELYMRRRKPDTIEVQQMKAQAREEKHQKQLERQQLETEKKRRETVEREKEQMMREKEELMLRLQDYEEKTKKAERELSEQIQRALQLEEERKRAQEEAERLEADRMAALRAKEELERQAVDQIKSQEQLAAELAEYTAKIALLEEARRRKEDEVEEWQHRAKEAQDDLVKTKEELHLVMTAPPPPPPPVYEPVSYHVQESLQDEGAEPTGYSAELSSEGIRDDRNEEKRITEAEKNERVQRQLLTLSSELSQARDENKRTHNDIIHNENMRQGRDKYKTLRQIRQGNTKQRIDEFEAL

fold enrichment of EZR mRNA over control IgG (RIP-qRT-PCR) [1] [fold]	fold reduction of the EBP50-EZR mRNA RIP signal against control peptide [2] [fold]	Molecule
100		ezrin, endogenous in HEK293T cells (from UniProt P15311 1-586) (natural protein)
	~10	RRRRRRRRRKERAHQKRSSKRAPQMDWSKKNELFSNL [Arg9-EBD peptide (28-amino-acid C terminus of the EBP50 EBD with an upstream 9-arginine sequence)]

From paper PMC8851480 (Proceedings of the National Academy of Sciences of the …, 2022)
